B1: LINE1-full (parent)
chain: UACGUAGGUGGUUUUCCCCUGAUAGUGCUAAGGGGGCCUGGAAGUUUGGACUGGGCAGAGCUCAACACAGCGUGGCAAAGUGGCUGUGGCUAGACUGCCUCUCUGGAUUCCUCGUCACUCAGCAGGGCAUCUCUGAGAGAAAUGCC

Variants of: B1
Assay: self-cleavage, relative activity (ratio to wild type); higher = more cleavage; in vitro, sequencing; the parent is a self-cleaving ribozyme

Variant	self-cleavage
UACGUAGGUGGUUUUCCCCUGAUAGUGCUAAGGGGGCCUGGAAGUUUGGACUGGGCAGGGCUCAACACAGCGUGGCAAAGUGGCUGUGGCUAGACUGCCUCUCUGGAUUCCUCGUCACUCAGCAGGGCAUCUCUGAGAGAAAUGCU [A59G C146U]	0.12
UACGUAGGUGGUUUUCCCCUGAUAGUGCUAAGGGGGCCUGGAAGUUUGGACUGGGCAGGGCUCAACACAGCGUGGCAAAGUGGCUGUGGCUAGACUGCCUCUCUGGAUUCCUCGUCACUCAGCUGGGCAUCUCUGAGAGAAAUGCC [A59G A124U]	0.14
UACGUAGGUGGUUUUCCCCUGAUAGUGCUAAGGGGGCCUGGAAGUUUGGACUGGGCAGGGCUCAACACAGCGUGGCAAAGUGGCUGUGGCUAGACUGCCUCUCUGGAUUUCUCGUCACUCAGCAGGGCAUCUCUGAGAGAAAUGCC [A59G C110U]	0.1
UACGUAGGUGGUUUUCCCCUGAUAGUGCUAAGGGGGCCUGGAAGUUUGGACUGGGCAGGGCUCAACACAGCGUGGCAAAGUGGCUGUGGCUAGACUGCCUCUCUGGAUUCCUCGUCACUCAGCAGGGCAUCUCUGGGAGAAAUGCC [A59G A136G]	0.07
UACGUAGGUGGUUUUCCCCUGAUAGUGCUAAGGGGGCCUGGAAGUUUGGACUGGGCAGGGCUCAACACAGCGUGGCAAGGUGGCUGUGGCUAGACUGCCUCUCUGGAUUCCUCGUCACUCAGCAGGGCAUCUCUGAGAGAAAUGCC [A59G A79G]	0.07
UACGUAGGUGGUUUUCCCCUGAUAGUGCUAAGGGGGCCUGGAAGUUUGGACUGGGCAGGGCUCAACACAGCGUGGCAAAGUGGCUGUGGCUAGACUGCCUCUCUGGAUUCCUCGUCACUCAGCAGGGCAUCUCUGAGAGAAGUGCC [A59G A142G]	0.07
UACGUAGGUGGUUUUCCCCUGAUAGUGCUAAGGGGGCCUGGAAGUUUGGACUGGGCAGGGCUCAACACAGCGUGGCAAAGUGGCUGUGGCUAGACUGCCUCUCUGGAUUCCUCGUCACUCAGCAGGGCGUCUCUGAGAGAAAUGCC [A59G A129G]	0.07
UACGUAGGUGGUUUUCCCCUGAUAGUGCUAAGGGGGCCUGGAAGUUUGGACUGGGCAGGGGUCAACACAGCGUGGCAAAGUGGCUGUGGCUAGACUGCCUCUCUGGAUUCCUCGUCACUCAGCAGGGCAUCUCUGAGAGAAAUGCC [A59G C61G]	0
UACGUAGGUGGUUUUCCCCUGAUAGUGCUAAGGGGGCCUGGAAGUUUGGACUGGGCAGGGCUCAACACAGCGUGACAAAGUGGCUGUGGCUAGACUGCCUCUCUGGAUUCCUCGUCACUCAGCAGGGCAUCUCUGAGAGAAAUGCC [A59G G75A]	0.04
UACGUAGGUGGUUUUCCCCUGAUAGUGCUAAGGGGGCCUGGAAGUUUGGACUGGGCAGGGCUCAACACAGCGUGGCAAAGUGGCUGUGGCUAGACUGCCUCUCUGGAUUCCUCGUUACUCAGCAGGGCAUCUCUGAGAGAAAUGCC [A59G C116U]	0.07
UACGUAGGUGGUUUUCCCCUGAUAGUGCUAAGGGGGCCUGGAAGUUUGGACUGGGCAGGGCUCAACACAGCGUGGCAAAGUGGCUGUGGCUAGACUGCCUCUCUGGAUUCCUCGUAACUCAGCAGGGCAUCUCUGAGAGAAAUGCC [A59G C116A]	0.04
UACGUAGGUGGUUUUCCCCUGAUAGUGCUAAGGGGGCCUGGAAGUUUGGACUGGGCAGGGCUCAACACAGCGUGGCAAAGUGGCUGUGGCUAGACUGCCUCUCUGGUUUCCUCGUCACUCAGCAGGGCAUCUCUGAGAGAAAUGCC [A59G A107U]	0.04
UACGUAGGUGGUUUUCCCCUGAUAGUGCUAAGGGGGCCUGGAAGUUUGGACUGGGCAGGGCUCAACACAGCGUGGCAAAGUGGCUUUGGCUAGACUGCCUCUCUGGAUUCCUCGUCACUCAGCAGGGCAUCUCUGAGAGAAAUGCC [A59G G86U]	0.03
UACGUAGGUGGUUUUCCCCUGAUAGUGCUAAGGGGGCCUGGAAGUUUGGACUGGGCAGGGCUCAACACAGCGUGGCAAAGUGGCUAUGGCUAGACUGCCUCUCUGGAUUCCUCGUCACUCAGCAGGGCAUCUCUGAGAGAAAUGCC [A59G G86A]	0.07
UACGUAGGUGGUUUUCCCCUGAUAGUGCUAAGGGGGCCUGGAAGUUUGGACUGGGCAGGGCUCAACACAGCGUGGCGAAGUGGCUGUGGCUAGACUGCCUCUCUGGAUUCCUCGUCACUCAGCAGGGCAUCUCUGAGAGAAAUGCC [A59G A77G]	0.15
UACGUAGGUGGUUUUCCCCUGAUAGUGCUAAGGGGGCCUGGAAGUUUGGACUGGGCAGGGCUCAACACGGCGUGGCAAAGUGGCUGUGGCUAGACUGCCUCUCUGGAUUCCUCGUCACUCAGCAGGGCAUCUCUGAGAGAAAUGCC [A59G A69G]	0.1
UACGUAGGUGGUUUUCCCCUGAUAGUGCUAAGGGGGCCUGGAAGUUUGGACUGGGCAGGGCUCAACACAGAGUGGCAAAGUGGCUGUGGCUAGACUGCCUCUCUGGAUUCCUCGUCACUCAGCAGGGCAUCUCUGAGAGAAAUGCC [A59G C71A]	0.06
UACGUAGGUGGUUUUCCCCUGAUAGUGCUAAGGGGGCCUGGAAGUUUGGACUGGGCAGGGCUCAACACAGCGUGGCAAAGUGGCUGUGGCUAGACUGCCUCUCUGGAUUCCUCGUCACUCAGCAGGGCAUCUAUGAGAGAAAUGCC [A59G C133A]	0.04
UACGUAGGUGGUUUUCCCCUGAUAGUGCUAAGGGGGCCUGGAAGUUUGGACUGGGCAGGGCUCAACACAGCGUGGCAAAGUGGCUGUGGCUAGACUGCCUCUCUGGAUUCCUCGUCACUCAGCAGGGCAUCUUUGAGAGAAAUGCC [A59G C133U]	0.08
UACGUAGGUGGUUUUCCCCUGAUAGUGCUAAGGGGGCCUGGAAGUUUGGACUGGGCAGGGCUCAACACAGCGUGGCAAAGUGGCUGUGGCUAGUCUGCCUCUCUGGAUUCCUCGUCACUCAGCAGGGCAUCUCUGAGAGAAAUGCC [A59G A94U]	0.07

Variant	self-cleavage
UACGUAGGUGGUUUUCCCCUGAUAGUGCUAAGGGGGCCUGGAAGUUUGGACUGGGCAGGGCUCAACACAGCGUGGCAAAGUGGCUGUGGCUAGGCUGCCUCUCUGGAUUCCUCGUCACUCAGCAGGGCAUCUCUGAGAGAAAUGCC [A59G A94G]	0.23
UACGUAGGUGGUUUUCCCCUGAUAGUGCUAAGGGGGCCUGGAAGUUUGGACUGGGCAGGGCUCAACACAGCGUGGCAAAGUGGCUGUGGCUAGACUGCCUCUCUGGAUUCCUCGUCUCUCAGCAGGGCAUCUCUGAGAGAAAUGCC [A59G A117U]	0.08
UACGUAGGUGGUUUUCCCCUGAUAGUGCUAAGGGGGCCUGGAAGUUUGGACUGGGCAGGGCUCAACACAGCGUGGAAAAGUGGCUGUGGCUAGACUGCCUCUCUGGAUUCCUCGUCACUCAGCAGGGCAUCUCUGAGAGAAAUGCC [A59G C76A]	0.08
UACGUAGGUGGUUUUCCCCUGAUAGUGCUAAGGGGGCCUGGAAGUUUGGACUGGGCAGGGCUCAACACAGCGUGGCAAAGUGGCUGUGGCUAGACUGCCUCUCUGGAUUCCUCGUCACUCAGCAGGGCAUCUCUGAGAGGAAUGCC [A59G A140G]	0.09
UACGUAGGUGGUUUUCCCCUGAUAGUGCUAAGGGGGCCUGGAAGUUUGGACUGGGCAGGGCUCAACACAGCGUGGCAAAGUGGCUGUGGCUAGACUGCCUCUCUGGAUUCCUCGUCACUCAGCAGGGCAUCUCUGAGAGUAAUGCC [A59G A140U]	0.09
UACGUAGGUGGUUUUCCCCUGAUAGUGCUAAGGGGGCCUGGAAGUUUGGACUGGGCAGGGCUCAACACAGCGUGGCAGAGUGGCUGUGGCUAGACUGCCUCUCUGGAUUCCUCGUCACUCAGCAGGGCAUCUCUGAGAGAAAUGCC [A59G A78G]	0.06
UACGUAGGUGGUUUUCCCCUGAUAGUGCUAAGGGGGCCUGGAAGUUUGGACUGGGCAGGGCUCAACACAGCGUGGCAAAGUGGCUGUGACUAGACUGCCUCUCUGGAUUCCUCGUCACUCAGCAGGGCAUCUCUGAGAGAAAUGCC [A59G G89A]	0.01
UACGUAGGUGGUUUUCCCCUGAUAGUGCUAAGGGGGCCUGGAAGUUUGGACUGGGCAGGGCUCAACACAGCGUGGCAAAGUAGCUGUGGCUAGACUGCCUCUCUGGAUUCCUCGUCACUCAGCAGGGCAUCUCUGAGAGAAAUGCC [A59G G82A]	0.02
UACGUAGGUGGUUUUCCCCUGAUAGUGCUAAGGGGGCCUGGAAGUUUGGACUGGGCAGGGCUCAACACAGCGUGGCAAAGUGGCUGUGGCUAGACUGCCUCUCUGGAUUCCUCGUCAUUCAGCAGGGCAUCUCUGAGAGAAAUGCC [A59G C118U]	0.02
UACGUAGGUGGUUUUCCCCUGAUAGUGCUAAGGGGGCCUGGAAGUUUGGACUGGGCAGGGCUCAACACAGCGUGGCAAAGUGGCUGUGGCUAGACUGCCUCUCUGGAUUCCUCGUCACUCAGCAGGGCAUCUCUGAGUGAAAUGCC [A59G A138U]	0.12
UACGUAGGUGGUUUUCCCCUGAUAGUGCUAAGGGGGCCUGGAAGUUUGGACUGGGCAGGGCUCAACACACCGUGGCAAAGUGGCUGUGGCUAGACUGCCUCUCUGGAUUCCUCGUCACUCAGCAGGGCAUCUCUGAGAGAAAUGCC [A59G G70C]	0.04
UACGUAGGUGGUUUUCCCCUGAUAGUGCUAAGGGGGCCUGGAAGUUUGGACUGGGCAGGGCUCAACACAGCGUGGCAAAGUGGCUGUGGCUGGACUGCCUCUCUGGAUUCCUCGUCACUCAGCAGGGCAUCUCUGAGAGAAAUGCC [A59G A92G]	0.04
UACGUAGGUGGUUUUCCCCUGAUAGUGCUAAGGGGGCCUGGAAGUUUGGACUGGGCAGGGCUCAACACAGCGUGGCAAAGUGGCUGUGGCUAGACUGCCUCUCUGGAUUCCUCGUCACUCAGCAGGGCAUCUCUGAGAGAGAUGCC [A59G A141G]	0.08
UACGUAGGUGGUUUUCCCCUGAUAGUGCUAAGGGGGCCUGGAAGUUUGGACUGGGCAGGGCUCAACACAGCGUGGCAAAGUGGCUGUGGCUAGACUGCCUCUCUGGAUUCCUCGUCACUCAGCAGGGCAUCUCUGAGAGAUAUGCC [A59G A141U]	0.2
UACGUAGGUGGUUUUCCCCUGAUAGUGCUAAGGGGGCCUGGAAGUUUGGACUGGGCAGGGCUUAACACAGCGUGGCAAAGUGGCUGUGGCUAGACUGCCUCUCUGGAUUCCUCGUCACUCAGCAGGGCAUCUCUGAGAGAAAUGCC [A59G C63U]	0.05
UACGUAGGUGGUUUUCCCCUGAUAGUGCUAAGGGGGCCUGGAAGUUUGGACUGGGCAGGGCUCAACACAGCGUGGCAAAGUGGCUGUGGCUAGACUGCCUCUCUGGAUUCCUCGUCACUCUGCAGGGCAUCUCUGAGAGAAAUGCC [A59G A121U]	0.08
UACGUAGGUGGUUUUCCCCUGAUAGUGCUAAGGGGGCCUGGAAGUUUGGACUGGGCAGGGCUCAACACAGCGUGGCAAAGUGGCUGUGGCUAGACUGCCUCUCUGGAUUCCUCGUCACUCCGCAGGGCAUCUCUGAGAGAAAUGCC [A59G A121C]	0.09
UACGUAGGUGGUUUUCCCCUGAUAGUGCUAAGGGGGCCUGGAAGUUUGGACUGGGCAGGGCUCAACACAGCGUGGCAAAGUGGCUGUGGCUAGACUGCCUCUCUGGAUUCCUCGUCACUCGGCAGGGCAUCUCUGAGAGAAAUGCC [A59G A121G]	0.23
UACGUAGGUGGUUUUCCCCUGAUAGUGCUAAGGGGGCCUGGAAGUUUGGACUGGGCAGGGCUCAACACAGCGUGGCAAAGUGGCUGUGGCUAGAUUGCCUCUCUGGAUUCCUCGUCACUCAGCAGGGCAUCUCUGAGAGAAAUGCC [A59G C95U]	0.14

Source: the RNAGym collection of RNA variant scans (doi:10.7554/elife.90254)
